Measurements: US20210292393A1 (published 2021)

Target: SARS-CoV-2 spike (S) protein (SARS-CoV-2, UniProt P0DTC2 14-1208)

Binder	Kd [nM]	koff [s⁻¹]	kon [M⁻¹ s⁻¹]
antibody 357 (antibody, V domains shown) VH: QVQLVQSGAEVKKPGSSVKVSCKASGGTFSSYAISWVRQAPGQGLEWMGRIIPILGIANYAQKFQGRVTITADKSTSTAYMELSSLRSEDTAVYYCARGPIAVAGIGPWFDPWGQGTLVTVSS VL: QSVLTQPPSVSAAPGQKVTISCSGSSSNIGNNYVSWYQQLPGTAPKLLIYDNNKRPSGIPDRFSGSKSGTSATLGITGLQTGDEADYYCGTWDSSLSAVVFGGGTKLTVL	0.837	6.53e-05	78000
antibody 277 (antibody, V domains shown) VH: QVQLVESGGGVVQPGRSLRLSCAASGFTFSSYAMHWVRQAPGKGLEWVAVISYDGSNTYYADSVKGRFTISRDNSKNTLYLQMNSLRAEDTAVYYCARPYSGSYFNWFDPWGQGTLVTVSS VL: not shown	0.204	6.24e-05	305000
antibody 313 (antibody, V domains shown) VH: QVQLVESGGGVVQPGRSLRLSCAASGFTFSSYAMHWVRQAPGKGLEWVAVISYDGSNKYYADSVKGRFTISRDNSKNTLYLQMNSLRAEDTAVYYCARGLGGSYYSLFDYWGQGTLVTVSS VL: not shown	0.0975	4.89e-05	502000
antibody 291 (antibody, V domains shown) VH: QVQLVESGGGVVQPGRSLRLSCAASGFTFSSYAMHWVRQAPGKGLEWVAVISYDGSNKYYADSVKGRFTISRDNSKNTLYLQMNSLRAEDTAVYYCARASGGSYFGGMDVWGQGTTVTVSS VL: QSALTQPASVSGSPGQSITISCTGTSSDVGGYNYVSWYQQHPGKAPKLMIYEVSNRPSGVSNRFSGSKSGNTASLTISGLQAEDEADYYCSSYTSSSTLYVFGTGTKVTVL	0.117	5.43e-05	464000
antibody 318 (antibody, V domains shown) VH: QVQLVESGGGVVPPGRSLSLPCAASGFSFSAYAMHWLRQAPGKGLEWVAVISYDGTVKYVADSVRGRFTISRDNSNNTLYLQMTSLRSDDTAVYYCARDLGALAAAPTVYFVHWGQGTLVTVSS VL: SYVLTQPPSVSVAPGKTATITCAGEDIGRKSVHWYQQKPGQAPVLVIFYYSDRPSGIPDRFSGSVSGNTATLTIGRVEAGDEADYFCQVWDRTTNHVIFGGGTKVTVL	11.1	0.0017	152000
antibody 370 (antibody, V domains shown) VH: QVQLVESGGGVVPPGRSLSLPCAASGFTFSAYAMHWLRQAPGKGLEWVAVISYDGTVKYVADSVRGRFTISRDNSNNTLYLQMTSLRSDDTAVYYCARDLGALAAAPTVYFVHWGQGTLVTVSS VL: SYVLTQPPSVSVAPGKTATITCAGEDIGRKSVHWYQQKPGQAPVLVIFYYSDRPSGIPDRFSGSVSGNTATLTIGRVEAGDEADYFCQVWDRTTNHVIFGGGTKVTVL	5.55	0.000986	178000
antibody 310 (antibody, V domains shown) VH: EVQLVESGGGLVQPGGSLRLSCAASGFTFSSYWMSWVRQAPGKGLEWVANIKQDGSEKYYVDSVKGRFTISRDNAKNSLYLQMNSLRAEDTAVYYCARVGSSSWYFDYWGQGTLVTVSS VL: not shown	0.532	6.43e-05	121000
antibody 354 (antibody, V domains shown) VH: QVQLVESGGGVVQPGRSLRLSCAASGFTFSSYAMHWVRQAPGKGLEWVAVISYDGSNKYYADSVKGRFTISRDNSKNTLYLQMNSLRAEDTAVYYCARDRPYYYGSGIPGYYGMDVWGQGTTVTVSS VL: not shown	43.6	0.00179	41100
antibody 336 (antibody, V domains shown) VH: QVQLVESGGGVVQPGRSLRLSCAASGFTFSSYAMHWVRQAPGKGLEWVAVISYDGSNKYYADSVKGRFTISRDNSKNTLYLQMNSLRAEDTAVYYCARAQTDYYDSSGWFDYWGQGTLVTVSS VL: SYELTQPPSVSVSPGQTARITCSGDALPKQYAYWYQQKPGQAPVLVIYKDSERPSGIPERFSGSSSGTTVTLTISGVQAEDEADYYCQSADSSGTPHWVFGGGTKLTVL	1.11	0.00021	190000
antibody 353 (antibody, V domains shown) VH: not shown VL: DIQMTQSPSSLSASVGDRVTITCRASQGISNYLAWFQQKPGKAPKSLIYAASSLQSGVPSKFSGSGSGTDFTLTISSLQPEDFATYYCQQYNSYPPTFGGGTKVEIK	0.0601	4.09e-05	680000
antibody 302 (antibody, V domains shown) VH: QVQLVQSGAEVRKPGASVKVSCKVSGYTLSELSMHWVRQAPGKGLEWMGGFDPEDGERMYAQKFQGRVTMTEDTSTDTAYMELSSLRSEDTAIYYCTTDLSYLWSGKLEPDYWYFALWGRGTLVTVSS VL: not shown	0.726	7.63e-05	105000
antibody 297 (antibody, V domains shown) VH: QVQLVESGGGVVQPGRSLRLSCAASGFTFSSYAMHWVRQAPGKGLEWVAVISYDGSNKYYADSVKGRFTISRDNSKNTLYLQMNSLRAEDTAVYYCARSFRGGYYYGMDVWGQGTTVTVSS VL: DIQLTQSPSFLSASVGDRVTITCRASQGISSYLAWYQQKPGKAPKLLIYAASTLQSGVPSRFSGSGSGTEFTLTISSLQPEDFATYYCQQLNSYPLFTFGPGTKVDIK	1.6	0.000127	79800
antibody 261 (antibody, V domains shown) VH: QVQLVESGGGVVQPGRSLRLSCAASGFTFSSYAMHWVRQAPGKGLEWVAVISYDGSNKYYADSVKGRFTISRDNSKNTLYLQMNSLRAEDTAVYYCARDEAYYDILTGYINAPKNYYYYGMDVWGQGTTVTVSS VL: DIQMTQSPSSLSASVGDRVTITCRASQGIRNDLGWYQQKPGKAPKRLIYAASSLQSGVPSRFSGSGSGTEFTLTISSLQPEDFATYYCLQHNSYPFTFGPGTKVDIK	5.37	0.000695	129000
antibody 356 (antibody, V domains shown) VH: QVQLVQSGAEVKKPGASVKVSCKASGYTFTSYGISWVRQAPGQGLEWMGWISAYHGNTNYAQKLQGRVTMTTDTSTSTAYMELRSLRSDDTAVYYCARVGLWWLGHADAFDIWGQGTMVTVSS VL: DIQMTQSPSSLSASVGDRVTITCRASQGIRNDLGWYQQKPGKAPKRLIYAASSLQSGVPSRFSGSGSGTEFTLTISSLQPEDFATYYCLQHNSYPLTFGGGTKVEIK	3.65	9.66e-05	26500
antibody 298 (antibody, V domains shown) VH: EVQLVESGGGLVQPGGSLRLSCAASGFTVSSNYMSWVRQAPGKGLEWVSVIYSGGSTYYADSVKGRFTISRDNSKNTLYLQMNSLRAEDTAVYYCAREEGEWEKDYYGMDVWGQGTTVTVSS VL: not shown	0.0225	1.34e-05	597000
antibody 311 (antibody, V domains shown) VH: QVQLQESGPGLVKPSETLSLTCTVSGYSISSGYYWGWIRQPPGKGLEWIGSIYHSGSTYYNPSLKSRVTISVDTSKNQFSLKLSSVTAADTAVYYCAREETLGSSWYESYIDYWGQGTLVTVSS VL: SYVLTQPPSVSVAPGKTARITCGGNNIGSKSVHWYQQKPGQAPVLVIYYDSDRPSGIPERFSGSNSGNTATLTISRVEAGDEADYYCQVWDSSSDHPRVFGGGTKLTVL	19.1	0.000407	21300
antibody 258 (antibody, V domains shown) VH: QVQLQESGPGLVKPSETLSLTCTVSGGSISSYYWSWIRQPAGKGLEWIGRIYTSGSTNYNPSLKSRVTMSVDTSKNQFSLKLSSVTAADTAVYYCAAGYGSIDYWGQGTLVTVSS VL: not shown	0.996	8.36e-05	84000
antibody 307 (antibody, V domains shown) VH: QVQLVESGGGVVQPGRSLRLSCAASGFTFSSYGMHWVRQAPGKGLEWVAVIWYDGSNKYYADSVKGRFTISRDNSKNTLYLQMNSLRAEDTAVYYCAKGYTWDYYYYGMDVWGQGTTVTVSS VL: not shown	17	0.00171	
antibody 338 (antibody, V domains shown) VH: QVQLQESGPGLVKPSETLSLTCAVSGYSISSDYYWGWIRQPPGKGLEWIGSIYHSGSTYYNPSLKSRVTISIDTSKNQFSLKLSSVTAADTAVYYCARDPGNYDILTGIFDYWGQGTLVTVSS VL: QSALTQPASVSGSPGQSITISCTGTSSDVGVYNYVSWYQQHPGKAPKLMIYDVTNRPSGVSNRFSGSKSGNTASLTISGLQAEDEADYYCSSYTSSSTLAVYVFGTGTKVTVL	0.882	4.43e-05	50200
antibody 278 (antibody, V domains shown) VH: QVQLVQSGAEVKKPGASVKVSCKASGYTFTSYYMHWVRQAPGQGLEWMGIINPSGGSTSYAQKFQGRVTMTRDTSTSTVYMELSSLRSEDTAVYYCARDHSNADPYYDFWSGYYTRTYYYGMDVWGQGTTVTVSS VL: not shown	4.78	0.000862	201000
antibody 330 (antibody, V domains shown) VH: QVQLVESGGGVVQPGRSLRLSCAASGFTFSSYAMHWVRQAPGKGLEWVAVISYDGSNKYYADSVKGRFTISRDNSKNTLYLQMNSLRAEDTAVYYCARDFQYYDFWSGYLTVSSPTSYYGMDVWGQGTTVTVSS VL: NFMLTQPHSVSESPGKTVTISCTGSSGSIASNYVQWYQQRPGSAPTTVIYEDNQRPSGVPDRFSGSIDSSSNSASLTISGLKTEDEADYYCQSYDSSNVVFGGGTKLTVL	9.54	0.00073	76500
antibody 305 (antibody, V domains shown) VH: QVQLVESGGGVVQPGRSLRLSCAASGFTFSSYAMHWVRQAPGKGLEWVAVISYDGSNKYYADSVKGRFTISRDNSKNTLYLQMNSLRAEDTAVYYCAREQTSYDYVWGTLGAYYYYGMDVWGQGTTVTVSS VL: SSELTQDPAVSVALGQTVRITCQGDSLRSYYASWYQQKPGQAPVLVIYGKNNRPSGIPDRFSGSSSGNTASLTITGAQAEDEADYYCNSRDSSGNHLVFGGGTKLTVL	13.8	0.001	72600
antibody 308 (antibody, V domains shown) VH: QLQLQESGPGLVKPSETLSLTCSVSGGSISSSSYHWGWIRQPPGKGLEWIGSIYYSGSTYYNPSLKSRVTISVDTSKNQFSLKLRSVTAADTAVYYCAGLRVVITFGGVIPKGGAFDIWGQGTMVTVSS VL: QSALTQPASVSGSPGQSITISCTGTSSDVGGYNYVSWYQQHPGKAPKLMIYDVSNRPSGVSNRFSGSKSGNTASLTISGLQAEDEADYYCSSYTSSSTVVFGGGTKLTVL	0.495	6.89e-05	139000
